Results: patent US20240024490

Legend:
ABL = ABL (UniProt P00519)
BRD4 = BRD4 (UniProt O60885)
BTK = BTK (UniProt Q06187)
Sequence of BTK (Q06187 whole entry): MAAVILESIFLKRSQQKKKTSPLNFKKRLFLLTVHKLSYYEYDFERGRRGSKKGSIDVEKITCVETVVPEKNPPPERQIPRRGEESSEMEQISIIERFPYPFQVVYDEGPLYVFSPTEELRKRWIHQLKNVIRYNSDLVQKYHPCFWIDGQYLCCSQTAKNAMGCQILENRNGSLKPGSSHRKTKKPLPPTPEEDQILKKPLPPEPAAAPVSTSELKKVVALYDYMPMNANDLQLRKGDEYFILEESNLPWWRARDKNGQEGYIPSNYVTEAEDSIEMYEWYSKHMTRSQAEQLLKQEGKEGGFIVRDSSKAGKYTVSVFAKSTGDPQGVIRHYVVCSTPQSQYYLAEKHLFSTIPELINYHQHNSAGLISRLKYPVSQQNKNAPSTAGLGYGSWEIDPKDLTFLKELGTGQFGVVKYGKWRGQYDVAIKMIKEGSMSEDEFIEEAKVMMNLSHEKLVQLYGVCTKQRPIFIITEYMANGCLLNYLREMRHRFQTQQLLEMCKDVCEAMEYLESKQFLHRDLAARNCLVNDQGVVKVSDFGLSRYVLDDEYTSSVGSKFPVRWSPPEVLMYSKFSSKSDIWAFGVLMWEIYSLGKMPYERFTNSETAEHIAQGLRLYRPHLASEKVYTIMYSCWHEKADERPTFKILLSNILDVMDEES

Sequence of ABL (P00519 whole entry): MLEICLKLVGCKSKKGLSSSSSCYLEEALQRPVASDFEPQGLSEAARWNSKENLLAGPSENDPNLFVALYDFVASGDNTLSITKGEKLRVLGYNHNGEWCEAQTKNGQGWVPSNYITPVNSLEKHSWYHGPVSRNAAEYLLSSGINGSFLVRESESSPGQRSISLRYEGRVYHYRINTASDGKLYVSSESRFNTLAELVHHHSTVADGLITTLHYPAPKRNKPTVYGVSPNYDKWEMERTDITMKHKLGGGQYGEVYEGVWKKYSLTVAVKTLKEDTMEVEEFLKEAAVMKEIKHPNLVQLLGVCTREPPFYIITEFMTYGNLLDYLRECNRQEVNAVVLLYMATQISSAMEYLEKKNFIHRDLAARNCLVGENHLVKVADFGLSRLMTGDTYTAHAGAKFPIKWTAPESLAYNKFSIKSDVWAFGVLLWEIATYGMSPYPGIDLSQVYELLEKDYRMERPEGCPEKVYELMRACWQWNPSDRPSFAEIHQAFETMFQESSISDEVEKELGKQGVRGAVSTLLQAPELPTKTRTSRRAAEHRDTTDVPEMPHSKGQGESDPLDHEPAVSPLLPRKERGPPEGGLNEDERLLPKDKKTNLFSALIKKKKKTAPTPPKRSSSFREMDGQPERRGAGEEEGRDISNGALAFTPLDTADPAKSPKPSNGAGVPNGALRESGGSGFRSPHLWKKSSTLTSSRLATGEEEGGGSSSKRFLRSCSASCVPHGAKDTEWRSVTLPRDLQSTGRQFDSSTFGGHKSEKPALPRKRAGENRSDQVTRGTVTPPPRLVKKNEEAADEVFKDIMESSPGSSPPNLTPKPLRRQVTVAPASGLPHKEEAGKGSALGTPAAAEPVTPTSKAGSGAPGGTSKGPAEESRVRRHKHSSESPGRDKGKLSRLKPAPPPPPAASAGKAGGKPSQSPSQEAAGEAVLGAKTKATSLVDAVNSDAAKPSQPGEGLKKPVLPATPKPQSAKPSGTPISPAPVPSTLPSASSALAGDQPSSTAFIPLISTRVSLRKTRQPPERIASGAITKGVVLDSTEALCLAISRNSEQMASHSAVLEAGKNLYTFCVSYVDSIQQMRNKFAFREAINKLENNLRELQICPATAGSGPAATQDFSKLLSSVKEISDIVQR

PKC
phosphorylation of ABL by PKC in vitro, with PHICS5 (ABL): An ABL-targeting PHICS5 formed using dihydropyrazole core also induced phosphorylation of ABL, compare to DMSO or activator VS1012 treated controls
phosphorylation of ABL by PKC in vitro, with VS558 (ABL): bifunctional molecule VS558 based on a known inhibitor dasatinib, that binds to a different pocket of ABL kinase [16], also induced its phosphorylation by PKC in vitro
phosphorylation of BRD4 by PKC in vitro, with PHICS4 (BRD4): BRD4 phosphorylation was detected in the presence of PHICS4
phosphorylation of BRD4 by PKC in vitro, with the chimeric molecule made from (R)-JQ1 (BRD4): absence of phosphorylation when a chimeric molecule generated from the inactive enantiomer of (S)-JQ1 [i.e., (R)-JQ1] was used
phosphorylation of BTK by PKC in vitro, with PHICS6 (PKC-motif antibody) (BTK): the degree of phosphorylation was higher in the presence of PHICS6
phosphorylation of BTK by PKC in vitro, with the inactive analog iPHICS6 (BTK): the inactive PHICS analogs lowered phosphorylation induction
phosphorylation of BTK by PKC in vitro, without PHICS (PKC-motif antibody) (BTK): some phosphorylation of BTK by PKC was observed in the absence of PHICS (quantified using PKC-motif antibody)
